Measurements taken from the supplement of paper PMC10126150.
± gives the standard deviation of the averaged measurements.
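Also: ATP exposure 15 min at 22 °C before imaging.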

These sequences were tested on ATP (assay: switch fluorescence ratio, 500 uM ATP over buffer (Cy3 cluster intensity, sum of 5 cycles each) (fold (ratio)); higher = stronger signal-on switching upon ATP binding; sequences stand for … in TCGTCGGCAGCGTCAGATGTGTATAAGAGACAGTTTTTTTTTTTTTTTTTTTTTTTTT…TC). Conditions: aptamer strand: ATP DNA aptamer (quencher-CACCTGGGGGAGTATTGCGGAGGAAGG + anchor), 100 nM annealed; ATP concentration: 500 uM.
In short: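 After annealing to 100 nM quencher-labelled ATP aptamer, Cy3-labelled switching-strand clusters on a modified Illumina MiSeq flow-cell were imaged in selection buffer. A second image followed after 15 min with 500 uM ATP at 22 °C, and five such buffer/ATP cycles were done, each separated by NaOH stripping and re-annealing. The fluorescence ratio, averaged per switch-domain sequence, is summed target-cycle over summed buffer-cycle Cy3 intensity per cluster, with clusters outside 100-1000 RFU excluded.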
TGGGTATTCT showed a switch fluorescence ratio of 0.945 ± 0.024.
For TGGGTATTGG, the switch fluorescence ratio was 1 ± 0.03.
Sequence TGGGTCAGTC has a switch fluorescence ratio of 1.05 ± 0.021.
TGGGTCATTT was tested, and the switch fluorescence ratio was 0.99 ± 0.034.
TGGGTCGGCA gave a switch fluorescence ratio of 1.05 ± 0.023.
For TGGGTCGGGC, the switch fluorescence ratio was 0.9905 ± 0.009.
With TGGGTCTCTT the switch fluorescence ratio was 1.01 ± 0.008.
For TGGGTGAGTT, the switch fluorescence ratio was 1.02 ± 0.019.
In the case of TGGGTGATAG, the switch fluorescence ratio is reported as 0.99 ± 0.035.
In the case of TGGGTGATCG, the switch fluorescence ratio is reported as 1.03 ± 0.067.
TGGGTGCGG was tested, and the switch fluorescence ratio was 0.984 ± 0.026.
TGGGTGGAGA gave a switch fluorescence ratio of 1.02 ± 0.021.
In the case of TGGGTGGGAT, the switch fluorescence ratio is reported as 1.002 ± 0.009.
TGGGTGGGTA gave a switch fluorescence ratio of 1.03 ± 0.026.
Work on TGGGTGGGTC yielded a switch fluorescence ratio of 1.05 ± 0.069.
TGGGTGGGTG was tested, and the switch fluorescence ratio was 1.04 ± 0.053.
Work on TGGGTGGTGT yielded a switch fluorescence ratio of 1.016 ± 0.0034.
For TGGGTGTCGC, the switch fluorescence ratio was 0.9672 ± 0.0039.
In the case of TGGGTGTCGT, the switch fluorescence ratio is reported as 1.02 ± 0.081.
In the case of TGGGTTAAGT, the switch fluorescence ratio is reported as 1 ± 0.021.
With TGGGTTACTA the switch fluorescence ratio was 1.002 ± 0.0097.
TGGGTTCCCG showed a switch fluorescence ratio of 0.986 ± 0.013.
Work on TGGGTTCGGC yielded a switch fluorescence ratio of 0.9808 ± 0.0045.
TGGGTTCTAT gave a switch fluorescence ratio of 0.9874 ± 0.0077.
With TGGGTTCTTG the switch fluorescence ratio was 0.998 ± 0.044.
TGGGTTGATT gave a switch fluorescence ratio of 1.01 ± 0.031.
TGGGTTGGGA was tested, and the switch fluorescence ratio was 0.991 ± 0.035.
In the case of TGGGTTGGGG, the switch fluorescence ratio is reported as 1.01 ± 0.049.
Sequence TGGGTTGTAT has a switch fluorescence ratio of 0.998 ± 0.02.
TGGGTTTAGC showed a switch fluorescence ratio of 1 ± 0.043.
TGGGTTTGGC showed a switch fluorescence ratio of 1.02 ± 0.023.
Work on TGGTAAACGG yielded a switch fluorescence ratio of 0.988 ± 0.02.
With TGGTAAACGT the switch fluorescence ratio was 1.05 ± 0.026.
For TGGTAAAGCT, the switch fluorescence ratio was 0.994 ± 0.017.
Sequence TGGTAAATAT has a switch fluorescence ratio of 1.01 ± 0.013.
TGGTAACGGT was tested, and the switch fluorescence ratio was 1.09 ± 0.12.
TGGTAATTAG was tested, and the switch fluorescence ratio was 0.979 ± 0.014.
TGGTACCTTT was tested, and the switch fluorescence ratio was 1.04 ± 0.012.
TGGTAGAAGG was tested, and the switch fluorescence ratio was 0.954 ± 0.013.
TGGTAGAGGG gave a switch fluorescence ratio of 0.986 ± 0.014.
Sequence TGGTAGCAGG has a switch fluorescence ratio of 1.24 ± 0.35.
Work on TGGTAGGGG yielded a switch fluorescence ratio of 1.01 ± 0.016.
In the case of TGGTAGGTGG, the switch fluorescence ratio is reported as 1.017 ± 0.0049.
In the case of TGGTATGCGC, the switch fluorescence ratio is reported as 0.9971 ± 0.0047.
With TGGTATGTCA the switch fluorescence ratio was 0.9913 ± 0.0059.
Sequence TGGTATGTGA has a switch fluorescence ratio of 1.01 ± 0.032.
Sequence TGGTATGTGT has a switch fluorescence ratio of 1.003 ± 0.0057.
TGGTCCAGAA was tested, and the switch fluorescence ratio was 0.977 ± 0.016.
Work on TGGTCCCTTG yielded a switch fluorescence ratio of 1.12 ± 0.16.
TGGTCCGGGG was tested, and the switch fluorescence ratio was 1.01 ± 0.087.
For TGGTCGCGTT, the switch fluorescence ratio was 0.988 ± 0.043.
TGGTCGGCTG showed a switch fluorescence ratio of 1.007 ± 0.0044.
With TGGTCGTGGG the switch fluorescence ratio was 1.01 ± 0.032.
TGGTCTAGTG was tested, and the switch fluorescence ratio was 0.968 ± 0.043.
Sequence TGGTCTATGC has a switch fluorescence ratio of 1.05 ± 0.012.
Work on TGGTCTTTTA yielded a switch fluorescence ratio of 0.9852 ± 0.0022.
TGGTGAGGAG gave a switch fluorescence ratio of 0.98 ± 0.013.
For TGGTGCAGGC, the switch fluorescence ratio was 0.702 ± 0.023.
For TGGTGCTTGG, the switch fluorescence ratio was 1.04 ± 0.013.
In the case of TGGTGGCCCG, the switch fluorescence ratio is reported as 1.04 ± 0.035.
TGGTGGCTTA showed a switch fluorescence ratio of 0.9827 ± 0.0025.
With TGGTGGCTTG the switch fluorescence ratio was 0.991 ± 0.022.
With TGGTGGGAAT the switch fluorescence ratio was 1.02 ± 0.011.
TGGTGGGGAA was tested, and the switch fluorescence ratio was 0.974 ± 0.01.
TGGTGGTTCG was tested, and the switch fluorescence ratio was 0.975 ± 0.061.
Sequence TGGTGGTTGC has a switch fluorescence ratio of 0.96 ± 0.051.
Work on TGGTGTAAGT yielded a switch fluorescence ratio of 1.007 ± 0.0052.
TGGTGTATGC was tested, and the switch fluorescence ratio was 1.03 ± 0.059.
TGGTGTGTTT showed a switch fluorescence ratio of 0.978 ± 0.035.
For TGGTTAAAAG, the switch fluorescence ratio was 0.977 ± 0.051.
TGGTTAATCG showed a switch fluorescence ratio of 0.9949 ± 0.0079.
TGGTTACAAA gave a switch fluorescence ratio of 0.997 ± 0.015.
TGGTTACACG was tested, and the switch fluorescence ratio was 1.06 ± 0.046.
With TGGTTACCTA the switch fluorescence ratio was 0.987 ± 0.039.
TGGTTACGTT was tested, and the switch fluorescence ratio was 0.983 ± 0.018.
Sequence TGGTTAGAAA has a switch fluorescence ratio of 1.04 ± 0.017.
For TGGTTAGTGG, the switch fluorescence ratio was 1 ± 0.02.
In the case of TGGTTATTTT, the switch fluorescence ratio is reported as 0.998 ± 0.036.
TGGTTCCAAA showed a switch fluorescence ratio of 0.971 ± 0.008.
TGGTTCCAGT showed a switch fluorescence ratio of 1.003 ± 0.0058.
TGGTTCTGAC gave a switch fluorescence ratio of 1.03 ± 0.038.
TGGTTCTGTG was tested, and the switch fluorescence ratio was 1.0262 ± 0.00041.
TGGTTGAGGG showed a switch fluorescence ratio of 1.01 ± 0.013.
For TGGTTGAGGT, the switch fluorescence ratio was 0.963 ± 0.028.
Sequence TGGTTGAGTA has a switch fluorescence ratio of 0.981 ± 0.017.
